# Data reported in patent publication US20210155689A1 (SHANGHAI PHARMAEXPLORER, published 2021).
# T1: human LAG-3 protein with hFc tag (hLAG-3-hFc protein) (human, UniProt P18627 23-450)
# T1 construct: also called immunogen 1; LAG-3 extracellular domain protein; not shown: human IgG Fc fragment (hFc) of the pCpC vector
# T1 sequence: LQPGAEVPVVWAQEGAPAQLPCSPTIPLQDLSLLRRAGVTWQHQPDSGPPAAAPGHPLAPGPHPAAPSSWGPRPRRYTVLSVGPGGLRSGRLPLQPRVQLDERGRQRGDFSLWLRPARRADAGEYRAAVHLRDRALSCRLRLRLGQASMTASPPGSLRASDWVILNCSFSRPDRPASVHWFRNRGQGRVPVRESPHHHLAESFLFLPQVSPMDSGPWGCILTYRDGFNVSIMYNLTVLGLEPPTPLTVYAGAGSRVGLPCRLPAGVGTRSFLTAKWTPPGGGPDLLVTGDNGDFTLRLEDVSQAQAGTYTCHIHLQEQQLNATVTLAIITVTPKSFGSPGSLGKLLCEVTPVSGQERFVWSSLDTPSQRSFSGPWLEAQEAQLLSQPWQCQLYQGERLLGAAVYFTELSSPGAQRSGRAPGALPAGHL
# T2: LAG-3-hFc protein (human LAG-3 extracellular region with hFc tag) (human, UniProt P18627 23-450)
# T2 construct: also called hLAG-3-hFc; LAG-3 protein; not shown: human IgG Fc fragment (hFc) of the pCpC vector
# T2 sequence: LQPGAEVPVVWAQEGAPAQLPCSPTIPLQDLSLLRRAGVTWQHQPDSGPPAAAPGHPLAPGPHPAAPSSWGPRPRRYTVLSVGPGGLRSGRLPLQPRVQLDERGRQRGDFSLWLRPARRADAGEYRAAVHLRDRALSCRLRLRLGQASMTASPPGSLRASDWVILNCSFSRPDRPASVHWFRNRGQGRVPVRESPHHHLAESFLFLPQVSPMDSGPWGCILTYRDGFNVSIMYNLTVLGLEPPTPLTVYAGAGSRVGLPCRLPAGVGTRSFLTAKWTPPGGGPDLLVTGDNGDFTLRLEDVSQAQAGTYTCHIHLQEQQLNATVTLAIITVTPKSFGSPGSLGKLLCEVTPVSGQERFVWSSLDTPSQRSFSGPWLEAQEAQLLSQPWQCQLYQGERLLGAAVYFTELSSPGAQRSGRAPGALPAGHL
# T3: hFc tagged monkey LAG-3 protein (cLAG-3-hFc protein) (monkey; human)
# T3 construct: Made in HEK293 cells; also called monkey LAG-3 extracellular domain protein; not shown: human IgG Fc fragment (hFc) of the pCpC vector
# T3 chain: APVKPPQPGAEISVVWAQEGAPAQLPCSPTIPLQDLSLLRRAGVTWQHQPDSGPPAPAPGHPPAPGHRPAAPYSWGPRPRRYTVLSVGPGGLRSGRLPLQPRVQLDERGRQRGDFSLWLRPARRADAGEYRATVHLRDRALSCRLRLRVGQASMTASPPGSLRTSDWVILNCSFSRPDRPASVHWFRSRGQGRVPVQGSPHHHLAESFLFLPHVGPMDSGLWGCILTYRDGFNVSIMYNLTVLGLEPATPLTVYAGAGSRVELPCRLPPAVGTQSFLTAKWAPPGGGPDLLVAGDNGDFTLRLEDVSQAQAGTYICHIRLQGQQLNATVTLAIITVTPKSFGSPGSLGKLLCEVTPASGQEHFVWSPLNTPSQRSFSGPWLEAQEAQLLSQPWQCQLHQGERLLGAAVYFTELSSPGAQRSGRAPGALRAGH
# T4: mouse LAG-3 protein with hFc tag (mLAG-3-hFc protein) (mouse; human, UniProt Q61790 24-442)
# T4 construct: Made in HEK293 cells; also called mouse LAG-3 extracellular domain protein; not shown: human IgG Fc fragment (hFc) of the pCpC vector
# T4 sequence: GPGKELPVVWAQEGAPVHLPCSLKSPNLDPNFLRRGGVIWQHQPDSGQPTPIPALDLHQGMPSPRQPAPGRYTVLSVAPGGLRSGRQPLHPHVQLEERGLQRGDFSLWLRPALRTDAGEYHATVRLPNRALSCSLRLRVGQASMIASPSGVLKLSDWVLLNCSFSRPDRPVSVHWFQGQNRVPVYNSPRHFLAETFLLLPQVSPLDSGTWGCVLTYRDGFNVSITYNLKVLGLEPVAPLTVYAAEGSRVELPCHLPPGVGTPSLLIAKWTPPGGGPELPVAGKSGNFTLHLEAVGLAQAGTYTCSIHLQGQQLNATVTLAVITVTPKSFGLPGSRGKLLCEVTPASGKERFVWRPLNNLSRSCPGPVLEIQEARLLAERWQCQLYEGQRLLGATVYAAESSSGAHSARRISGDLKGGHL
# What was measured:
# [1] = target: T1, human LAG-3 protein with hFc tag …; assay: FACS, blocks LAG-3-hFc binding to MHC II on Raji; 0.823 nM
# Procedure: (§1) The FACS reaction plate incubating the Raji cells was centrifuged to discard the supernatant. The above mixture was added as 100 μl per well to Raji cells and incubated on ice for 1-2 hours. The plate was washed twice with blocking solution (PBS, 2% fetal bovine serum) by centrifugation, added with 100 microliters of fluorescent (Alexa 488)-labeled secondary antibodies per well, and incubated on ice for 1.0 hours. The plate was washed 2-3 times by centrifugation with blocking solution (PBS, 2% fetal bovine serum), added with 100 microliters of PBS per well to suspend cells, and detected using FACS (FACS Calibur, BD) and the results were analyzed. Wherein, the IgG control was murine IgG, and the data in the table is the inhibition rate (%).
# [2] = target: T2, LAG-3-hFc protein (human LAG-3 …); assay: FACS, inhibition of LAG-3-hFc binding to MHC II on Raji cells, antibody 0.823 nM
# Procedure: as §1
# [3] = target: T2, LAG-3-hFc protein (human LAG-3 …); assay: FACS, inhibition of LAG-3-hFc binding to MHC II on Raji cells, antibody 66.667 nM
# Procedure: as §1
# [4] = target: T3, hFc tagged monkey LAG-3 protein …; assay: ELISA, cLAG-3-hFc coated; 0.0007 nM
# Procedure: (§2) The plate was sealed with plastic film and incubated overnight at 4° C. The plate was washed 2 times with the plate washing solution (PBS+0.01% Tween20) on the next day, and added with the blocking solution (PBS+0.01% Tween20+1% BSA) and blocked at room temperature for 1-2 hours. The blocking solution was poured out, and the plate was added with 50-100 μl of the antibody sample to be tested to each well, incubated at 37° C. for 1-2 hours, and washed 2-3 times with a plate washing solution (PBS+0.01% Tween20). HRP (horseradish peroxidase) labeled secondary antibody was added, and the plate was incubated at 37° C. for 1-2 hours, and washed 2-3 times with a plate washing solution (PBS+0.01% Tween20). 100 μl of TMB substrate was added to each well. After incubated at room temperature for 15-30 minutes, the plate was added with 100 μl of stop solution (1.0N HCl) to each well.
# [5] = target: T3, hFc tagged monkey LAG-3 protein …; assay: ELISA, cLAG-3-hFc coated; 0.0667 nM
# Procedure: as §2
# [6] = target: T4, mouse LAG-3 protein with hFc tag …; assay: ELISA, mLAG-3-hFc coated; 6.6667 nM
# Procedure: as §2
Binder,Inhibition rate (%) [1] [%],OD450 [4] [OD450],OD450 [5] [OD450],OD450 [6] [OD450],further results
"405B8H3 (mouse antibody purified from hybridoma) (antibody, V domains shown, also called mAb103-405B8H3; 405B81-13) VH: QVQLQQSGAELVRPGASVTLSCKASGYTFTDYEMHWVKQTPVHGLEWIGATDPETGNSAYNQKFKGKAIMTADKSSSTAYMELRSLTSEDSAVYYCISTGWNDWGQGTSLTVSS VL: DIKMTQSPSSMYASLGERVTITCKASQDINSYLSWFQQKPGKSPKTLIYRADRLLDGVPSRFSGSGSGQDYSLTISSLEYGDMGIYYCLQYDEFPYTFGGGTKLEIK",10.9,,,,
"409B11E12 (mouse antibody purified from hybridoma) (antibody, V domains shown, also called mAb104-409B11E12) VH: QVQLQQSGAELVRPGASVTLSCKASGYTFTDYEMHWVKQTTVHGLEWIGATDPETSYSAYNQKFKGKAILTADKSSSTAYMELRSLTSEDSAVYYCIATGWNDWGQGTSLTVSS VL: DLKMTQSPSSMYASLGERVTITCKASQDINSYLSWFQQKPGKSPKTLIYRANRLLDGVPSRFSGSGSGQDYSLTISSLEYEDMGIYYCLQYDEFPYTFGGGTKLEIK",15.3,,,,
"409D4E10 (mouse antibody purified from hybridoma) (antibody, V domains shown, also called mAb112-409D4E10) VH: QVQLQQSGAELVRPGASVTLSCKASGNTFTDYEMHWVKQTPVHGLEWIGATDPETDNTAYNQKFKGKAILTTDKSSSTAYMELRSLTSEDSAVYYCITSGWNDWGQGTSLTVSS VL: DIKMTQSPSSMYASLGERVTITCKASQDINSYLSWFQQKPGKSPKTLIYRANRLLDGVPSRFSGSGSGQDYSLTISSLEYEDMGIYYCLQYNEFPYTFGGGTKLEIK",18.2,,,,
"556F6B8 mouse-human chimeric antibody (antibody, V domains shown, also called mAb123-556F6B8; 556F8B8) VH: RVQLKQSGPGLVQPSQSLSITCTVSGFSLIKYGVHWVRQSPGEGLEWLGVIWRGGITDYNAAFMSRLSITKDNSKSQVFFKMNSLQADDTAIYYCAKWDGPLAMDYWGQGTSVTVSS VL: DIVMTQSHKFLSTSVGDRVSITCKASQDVGTTVAWYQQKPGQSPKLLIYWASTRHTGVPDRFTGSGSGTDFTLTISNVQSEDLADYFCQQYSSYPYTFGGGTKLEIK",,,,,Inhibition rate (%) [2]: 29.7%; Inhibition rate (%) [3]: 96%
"105F1E10 mouse-human chimeric antibody (antibody, V domains shown, also called mAb009-105F1E10) VH: EVQLQQSGPELVKPGASVKMSCRASGYTFTDFKMHWMKQSHGKSLEWIGYIAPNNGGTAYNQKFRGKATLTVNESSNTAYMELRSLTSEDSAVYYCVDWDDVDYWGQGTTLTVSS VL: DIKMTQSPSSMYASLGERVTITCKASQDINSYLSWFQQKSGKSPKTLIYRANRLVDGVPSRFSGSGSGQDYSLTISSLEYEDMGIYYCLQYVEFPLTFGAGTKLELK",,,,,Inhibition rate (%) [2]: -0.3%; Inhibition rate (%) [3]: 96%
"556F6B8 (mouse antibody purified from hybridoma) (antibody, V domains shown, also called mAb123-556F6B8) VH: RVQLKQSGPGLVQPSQSLSITCTVSGFSLIKYGVHWVRQSPGEGLEWLGVIWRGGITDYNAAFMSRLSITKDNSKSQVFFKMNSLQADDTAIYYCAKWDGPLAMDYWGQGTSVTVSS VL: DIVMTQSHKFLSTSVGDRVSITCKASQDVGTTVAWYQQKPGQSPKLLIYWASTRHTGVPDRFTGSGSGTDFTLTISNVQSEDLADYFCQQYSSYPYTFGGGTKLEIK",20.1,,,,
"105F1E10 (mouse antibody purified from hybridoma) (antibody, V domains shown, also called mAb009-105F1E10) VH: EVQLQQSGPELVKPGASVKMSCRASGYTFTDFKMHWMKQSHGKSLEWIGYIAPNNGGTAYNQKFRGKATLTVNESSNTAYMELRSLTSEDSAVYYCVDWDDVDYWGQGTTLTVSS VL: DIKMTQSPSSMYASLGERVTITCKASQDINSYLSWFQQKSGKSPKTLIYRANRLVDGVPSRFSGSGSGQDYSLTISSLEYEDMGIYYCLQYVEFPLTFGAGTKLELK",7,,,,
"105F1E10 (LAG-3 mouse-human chimeric antibody) (antibody, V domains shown) VH: EVQLQQSGPELVKPGASVKMSCRASGYTFTDFKMHWMKQSHGKSLEWIGYIAPNNGGTAYNQKFRGKATLTVNESSNTAYMELRSLTSEDSAVYYCVDWDDVDYWGQGTTLTVSS VL: DIKMTQSPSSMYASLGERVTITCKASQDINSYLSWFQQKSGKSPKTLIYRANRLVDGVPSRFSGSGSGQDYSLTISSLEYEDMGIYYCLQYVEFPLTFGAGTKLELK",,0.16,1,0.14,
"405B8H3 (LAG-3 mouse-human chimeric antibody) (antibody, V domains shown, also called mouse-human chimeric antibody 405B8H3) VH: QVQLQQSGAELVRPGASVTLSCKASGYTFTDYEMHWVKQTPVHGLEWIGATDPETGNSAYNQKFKGKAIMTADKSSSTAYMELRSLTSEDSAVYYCISTGWNDWGQGTSLTVSS VL: DIKMTQSPSSMYASLGERVTITCKASQDINSYLSWFQQKPGKSPKTLIYRADRLLDGVPSRFSGSGSGQDYSLTISSLEYGDMGIYYCLQYDEFPYTFGGGTKLEIK",,0.21,1.96,0.34,
"409B11E12 (LAG-3 mouse-human chimeric antibody) (antibody, V domains shown) VH: QVQLQQSGAELVRPGASVTLSCKASGYTFTDYEMHWVKQTTVHGLEWIGATDPETSYSAYNQKFKGKAILTADKSSSTAYMELRSLTSEDSAVYYCIATGWNDWGQGTSLTVSS VL: DLKMTQSPSSMYASLGERVTITCKASQDINSYLSWFQQKPGKSPKTLIYRANRLLDGVPSRFSGSGSGQDYSLTISSLEYEDMGIYYCLQYDEFPYTFGGGTKLEIK",,0.17,1.91,0.31,
"409D4E10 (LAG-3 mouse-human chimeric antibody) (antibody, V domains shown) VH: QVQLQQSGAELVRPGASVTLSCKASGNTFTDYEMHWVKQTPVHGLEWIGATDPETDNTAYNQKFKGKAILTTDKSSSTAYMELRSLTSEDSAVYYCITSGWNDWGQGTSLTVSS VL: DIKMTQSPSSMYASLGERVTITCKASQDINSYLSWFQQKPGKSPKTLIYRANRLLDGVPSRFSGSGSGQDYSLTISSLEYEDMGIYYCLQYNEFPYTFGGGTKLEIK",,0.27,3.05,0.23,
"556F6B8 (LAG-3 mouse-human chimeric antibody) (antibody, V domains shown, also called 556F8B8) VH: RVQLKQSGPGLVQPSQSLSITCTVSGFSLIKYGVHWVRQSPGEGLEWLGVIWRGGITDYNAAFMSRLSITKDNSKSQVFFKMNSLQADDTAIYYCAKWDGPLAMDYWGQGTSVTVSS VL: DIVMTQSHKFLSTSVGDRVSITCKASQDVGTTVAWYQQKPGQSPKLLIYWASTRHTGVPDRFTGSGSGTDFTLTISNVQSEDLADYFCQQYSSYPYTFGGGTKLEIK",,0.21,2.43,0.36,
